Data: PMC3526858 (Biochemical Journal, 2012)

B1: Full-length EssB (S. aureus), detergent-solubilised (natural protein, S. aureus subsp. aureus)
chain: GASMVKNHNPKNEMQDMLTPLDAEEAAKTKLRLDMREIPKSSIKPEHFHLMYLLEQHSPYFIDAELTELRDSFQIHYDINDNHTPFDNIKSFTKNEKLRYLLNIKNLEEVNRTRYTFVLAPDELFFTRDGLPIAKTRGLQNVVDPLPVSEAEFLTRYKALVICAFNEKQSFDALVEGNLELHKGTPFETKVIEAATLDLLTAFLDEQYQKQEQDYSQNYAYVRKVGHTVFKWVAIGMTTLSVLLIAFLAFLYFSVMKHNERIEKGYQAFVKDDYTQVLNTYDDLDGKKLDKEALYIYAKSYIQTNKQGLEKDKKENLLNNVTPNSNKDYLLYWMELGQGHLDEAINIATYLDDNDITKLALINKLNEIKNNGDLSNDKRSEETKKYNDKLQDILDKEKQVKDEKAKSEEEKAKAKDEKLKQQEENEKKQKEQAQKDKEKRQEAERKK
B2: EssB-C, C-terminal fragment of EssB (residues 257-444) (domain or fragment, S. aureus subsp. aureus)
chain: GASERIEKGYQAFVKDDYTQVLNTYDDLDGKKLDKEALYIYAKSYIQTNKQGLEKDKKENLLNNVTPNSNKDYLLYWMELGQGHLDEAINIATYLDDNDITKLALINKLNEIKNNGDLSNDKRSEETKKYNDKLQDILDKEKQVKDEKAKSEEEKAKAKDEKLKQQEENEKKQKEQAQKDKEKRQEAERKK

Columns and labels:
[1] = target: EssB-N, N-terminal cytoplasmic fragment of EssB (residues 12-226) (S. aureus subsp. aureus) (UniProt Q2G185); experiment: native gel or EMSA
[2] = target: EssBΔC, EssB truncated by 43 C-terminal residues, detergent-solubilised (S. aureus subsp. aureus) (UniProt Q2G185); experiment: SEC
native gel or EMSA = target: the molecule itself; experiment: native gel or EMSA

| Molecule | stoichiometry N (native gel or EMSA) | further results |
| --- | --- | --- |
| EssB-N, N-terminal cytoplasmic fragment of EssB (residues 12-226) (from UniProt Q2G185 12-226) (domain or fragment) | – | stoichiometry N [1]: 2 |
| EssBΔC, EssB truncated by 43 C-terminal residues, detergent-solubilised (from UniProt Q2G185 1-400) (domain or fragment) | – | stoichiometry N [2]: 2 |
| B1 | 2 | – |
| B2 | 2 | – |
